What was measured:
[1] = molecular target: angiotensin I converting enzyme (ACE); assay: cell-based or functional assay
[2] = molecular target: angiotensin I converting enzyme (ACE); assay: cell-based or functional assay; remark: listed apart in the source

| Binder | IC50 value in the Modified Matsui test (ACE inhibition) [1] [µM] | IC50 value in µM, Modified Matsui assay (ACE inhibition, cleavage of Hip-His-Leu) [2] [µM] | IC50 value in µM, at-line ACE assay (ACE inhibition, cleavage of hippuryl-His-Leu) [2] [µM] |
| --- | --- | --- | --- |
| MAP [tripeptide Methionine-Alanine-Proline (Met-Ala-Pro)] | 0.5 | 0.4 | 3.8 |
| IPP [tripeptide IPP] | – | 2 | 7.1 |
| ITP [tripeptide Isoleucine-Threonine-Proline (Ile-Thr-Pro)] | – | 10 | 50 |
